Test results taken from patent US20220298218A1 (ANTAG THERAPEUTICS, published 2022).
Where two headings read alike, the source gives them in different places. Where no end group is shown, it is not given here. The star is where a group is joined. C16 diacid = O=C(O)CCCCCCCCCCCCCCC(=O)*

T1: human GIP receptor (human, UniProt P48546 22-466)
T1 sequence (looked up): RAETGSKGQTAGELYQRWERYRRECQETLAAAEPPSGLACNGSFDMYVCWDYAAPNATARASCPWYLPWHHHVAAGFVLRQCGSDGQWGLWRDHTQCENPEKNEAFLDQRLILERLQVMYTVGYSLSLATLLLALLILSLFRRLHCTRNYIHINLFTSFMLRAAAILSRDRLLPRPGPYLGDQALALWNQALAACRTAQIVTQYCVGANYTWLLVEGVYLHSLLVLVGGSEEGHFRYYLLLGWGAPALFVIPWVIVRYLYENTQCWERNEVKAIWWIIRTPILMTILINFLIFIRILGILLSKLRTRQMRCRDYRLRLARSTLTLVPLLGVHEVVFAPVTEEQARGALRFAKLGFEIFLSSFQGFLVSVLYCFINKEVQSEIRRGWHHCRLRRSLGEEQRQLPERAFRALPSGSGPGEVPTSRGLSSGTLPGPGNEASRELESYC


What was measured:
human GIP receptor [1] = molecular target: T1, human GIP receptor; assay: cell-based or functional assay
human GIP receptor [2] = molecular target: T1, human GIP receptor; assay: cell-based or functional assay; remark: listed apart in the source

Row | Binder | cAMP agonism Emax (human GIP receptor [1]) | cAMP antagonism (human GIP receptor [1]) | cAMP antagonism % inhib (human GIP receptor [1]) | cAMP antagonism log (human GIP receptor [1]) | cAMP agonism % Emax (human GIP receptor [2]) | cAMP antagonism (human GIP receptor [2]) | cAMP antagonism % inhib (human GIP receptor [2]) | cAMP antagonism pIC50 (human GIP receptor [2])
1 | EGTFISDYSIAMDKIK(C16 diacid)QQDFVNWLLAQKGKKND-OH (N-terminus assumed; SMILES CC[C@H](C)[C@H](NC(=O)[C@H](CO)NC(=O)[C@H](Cc1ccc(O)cc1)NC(=O)[C@H](CC(=O)O)NC(=O)[C@H](CO)NC(=O)[C@@H](NC(=O)[C@H](Cc1ccccc1)NC(=O)[C@@H](NC(=O)CNC(=O)[C@@H](N)CCC(=O)O)[C@@H](C)O)[C@@H](C)CC)C(=O)N[C@@H](C)C(=O)N[C@@H](CCSC)C(=O)N[C@@H](CC(=O)O)C(=O)N[C@@H](CCCCN)C(=O)N[C@H](C(=O)N[C@@H](CCCCNC(=O)CCCCCCCCCCCCCCC(=O)O)C(=O)N[C@@H](CCC(N)=O)C(=O)N[C@@H](CCC(N)=O)C(=O)N[C@@H](CC(=O)O)C(=O)N[C@@H](Cc1ccccc1)C(=O)N[C@H](C(=O)N[C@@H](CC(N)=O)C(=O)N[C@@H](Cc1c[nH]c2ccccc12)C(=O)N[C@@H](CC(C)C)C(=O)N[C@@H](CC(C)C)C(=O)N[C@@H](C)C(=O)N[C@@H](CCC(N)=O)C(=O)N[C@@H](CCCCN)C(=O)NCC(=O)N[C@@H](CCCCN)C(=O)N[C@@H](CCCCN)C(=O)N[C@@H](CC(N)=O)C(=O)N[C@@H](CC(=O)O)C(=O)O)C(C)C)[C@@H](C)CC) [AT450] | 5.8 | 3 nM | 57% | -8.5 log M | 0% | 2.29 nM | 97% | 8.6
2 | EGTFISDYSIAMDKIK(C16 diacid)QQDFVNWLLAQKGKKNDW-OH (N-terminus assumed; SMILES CC[C@H](C)[C@H](NC(=O)[C@H](CO)NC(=O)[C@H](Cc1ccc(O)cc1)NC(=O)[C@H](CC(=O)O)NC(=O)[C@H](CO)NC(=O)[C@@H](NC(=O)[C@H](Cc1ccccc1)NC(=O)[C@@H](NC(=O)CNC(=O)[C@@H](N)CCC(=O)O)[C@@H](C)O)[C@@H](C)CC)C(=O)N[C@@H](C)C(=O)N[C@@H](CCSC)C(=O)N[C@@H](CC(=O)O)C(=O)N[C@@H](CCCCN)C(=O)N[C@H](C(=O)N[C@@H](CCCCNC(=O)CCCCCCCCCCCCCCC(=O)O)C(=O)N[C@@H](CCC(N)=O)C(=O)N[C@@H](CCC(N)=O)C(=O)N[C@@H](CC(=O)O)C(=O)N[C@@H](Cc1ccccc1)C(=O)N[C@H](C(=O)N[C@@H](CC(N)=O)C(=O)N[C@@H](Cc1c[nH]c2ccccc12)C(=O)N[C@@H](CC(C)C)C(=O)N[C@@H](CC(C)C)C(=O)N[C@@H](C)C(=O)N[C@@H](CCC(N)=O)C(=O)N[C@@H](CCCCN)C(=O)NCC(=O)N[C@@H](CCCCN)C(=O)N[C@@H](CCCCN)C(=O)N[C@@H](CC(N)=O)C(=O)N[C@@H](CC(=O)O)C(=O)N[C@@H](Cc1c[nH]c2ccccc12)C(=O)O)C(C)C)[C@@H](C)CC) [AT361] | 5 | 2 nM | 100% | -8.8 log M | 0% | 3.76 nM | 99% | 8.4
3 | EGTFISDYSIAMDKIK(C16 diacid)QQDFVNWLLAQKGKKNDWK-OH (N-terminus assumed; SMILES CC[C@H](C)[C@H](NC(=O)[C@H](CO)NC(=O)[C@H](Cc1ccc(O)cc1)NC(=O)[C@H](CC(=O)O)NC(=O)[C@H](CO)NC(=O)[C@@H](NC(=O)[C@H](Cc1ccccc1)NC(=O)[C@@H](NC(=O)CNC(=O)[C@@H](N)CCC(=O)O)[C@@H](C)O)[C@@H](C)CC)C(=O)N[C@@H](C)C(=O)N[C@@H](CCSC)C(=O)N[C@@H](CC(=O)O)C(=O)N[C@@H](CCCCN)C(=O)N[C@H](C(=O)N[C@@H](CCCCNC(=O)CCCCCCCCCCCCCCC(=O)O)C(=O)N[C@@H](CCC(N)=O)C(=O)N[C@@H](CCC(N)=O)C(=O)N[C@@H](CC(=O)O)C(=O)N[C@@H](Cc1ccccc1)C(=O)N[C@H](C(=O)N[C@@H](CC(N)=O)C(=O)N[C@@H](Cc1c[nH]c2ccccc12)C(=O)N[C@@H](CC(C)C)C(=O)N[C@@H](CC(C)C)C(=O)N[C@@H](C)C(=O)N[C@@H](CCC(N)=O)C(=O)N[C@@H](CCCCN)C(=O)NCC(=O)N[C@@H](CCCCN)C(=O)N[C@@H](CCCCN)C(=O)N[C@@H](CC(N)=O)C(=O)N[C@@H](CC(=O)O)C(=O)N[C@@H](Cc1c[nH]c2ccccc12)C(=O)N[C@@H](CCCCN)C(=O)O)C(C)C)[C@@H](C)CC) [AT451] | 9.2 | 8 nM | 75% | -8.1 log M | 0% | 2.33 nM | 99% | 8.6
4 | EGTFISDYSIAMDKIK(C16 diacid)QQDFVNWLLAQKGKKNDWKH-OH (N-terminus assumed; SMILES CC[C@H](C)[C@H](NC(=O)[C@H](CO)NC(=O)[C@H](Cc1ccc(O)cc1)NC(=O)[C@H](CC(=O)O)NC(=O)[C@H](CO)NC(=O)[C@@H](NC(=O)[C@H](Cc1ccccc1)NC(=O)[C@@H](NC(=O)CNC(=O)[C@@H](N)CCC(=O)O)[C@@H](C)O)[C@@H](C)CC)C(=O)N[C@@H](C)C(=O)N[C@@H](CCSC)C(=O)N[C@@H](CC(=O)O)C(=O)N[C@@H](CCCCN)C(=O)N[C@H](C(=O)N[C@@H](CCCCNC(=O)CCCCCCCCCCCCCCC(=O)O)C(=O)N[C@@H](CCC(N)=O)C(=O)N[C@@H](CCC(N)=O)C(=O)N[C@@H](CC(=O)O)C(=O)N[C@@H](Cc1ccccc1)C(=O)N[C@H](C(=O)N[C@@H](CC(N)=O)C(=O)N[C@@H](Cc1c[nH]c2ccccc12)C(=O)N[C@@H](CC(C)C)C(=O)N[C@@H](CC(C)C)C(=O)N[C@@H](C)C(=O)N[C@@H](CCC(N)=O)C(=O)N[C@@H](CCCCN)C(=O)NCC(=O)N[C@@H](CCCCN)C(=O)N[C@@H](CCCCN)C(=O)N[C@@H](CC(N)=O)C(=O)N[C@@H](CC(=O)O)C(=O)N[C@@H](Cc1c[nH]c2ccccc12)C(=O)N[C@@H](CCCCN)C(=O)N[C@@H](Cc1c[nH]cn1)C(=O)O)C(C)C)[C@@H](C)CC) [AT452] | 7.2 | 5 nM | 75% | -8.3 log M | 0% | 7.59 nM | 97% | 8.1
5 | EGTFISDYSIAMDKIK(C16 diacid)QQDFVNWLLAQKGKKNDWKHN-OH [AT362] | 7 | 5 nM | 86% | -8.3 log M | 0% | 14.7 nM | 94% | 7.8
6 | EGTFISDYSIAMDKIK(C16 diacid)QQDFVNWLLAQKGKKNDWKHNI-OH (N-terminus assumed; SMILES CC[C@H](C)[C@H](NC(=O)[C@H](CC(N)=O)NC(=O)[C@H](Cc1c[nH]cn1)NC(=O)[C@H](CCCCN)NC(=O)[C@H](Cc1c[nH]c2ccccc12)NC(=O)[C@H](CC(=O)O)NC(=O)[C@H](CC(N)=O)NC(=O)[C@H](CCCCN)NC(=O)[C@H](CCCCN)NC(=O)CNC(=O)[C@H](CCCCN)NC(=O)[C@H](CCC(N)=O)NC(=O)[C@H](C)NC(=O)[C@H](CC(C)C)NC(=O)[C@H](CC(C)C)NC(=O)[C@H](Cc1c[nH]c2ccccc12)NC(=O)[C@H](CC(N)=O)NC(=O)[C@@H](NC(=O)[C@H](Cc1ccccc1)NC(=O)[C@H](CC(=O)O)NC(=O)[C@H](CCC(N)=O)NC(=O)[C@H](CCC(N)=O)NC(=O)[C@H](CCCCNC(=O)CCCCCCCCCCCCCCC(=O)O)NC(=O)[C@@H](NC(=O)[C@H](CCCCN)NC(=O)[C@H](CC(=O)O)NC(=O)[C@H](CCSC)NC(=O)[C@H](C)NC(=O)[C@@H](NC(=O)[C@H](CO)NC(=O)[C@H](Cc1ccc(O)cc1)NC(=O)[C@H](CC(=O)O)NC(=O)[C@H](CO)NC(=O)[C@@H](NC(=O)[C@H](Cc1ccccc1)NC(=O)[C@@H](NC(=O)CNC(=O)[C@@H](N)CCC(=O)O)[C@@H](C)O)[C@@H](C)CC)[C@@H](C)CC)[C@@H](C)CC)C(C)C)C(=O)O) [AT453] | 6.1 | 57 nM | 65% | -7.2 log M | 0% | 6.31 nM | 95% | 8.2
